Measured values: PMC2104711 (The EMBO Journal, 2007)

Target: human XLF/Cernunnos (1–233), tag-free (cleaved XLF441) (human, UniProt Q9H9Q4 1-233)
Assay: SPR

human XLF/Cernunnos (1–233), tag-free (cleaved XLF441), sequence (Q9H9Q4 1-233): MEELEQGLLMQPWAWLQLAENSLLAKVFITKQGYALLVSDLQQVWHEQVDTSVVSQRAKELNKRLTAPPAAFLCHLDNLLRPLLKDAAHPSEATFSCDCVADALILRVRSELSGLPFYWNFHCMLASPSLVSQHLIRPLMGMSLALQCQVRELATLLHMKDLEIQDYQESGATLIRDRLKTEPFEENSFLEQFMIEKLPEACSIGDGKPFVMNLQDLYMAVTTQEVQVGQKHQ

B1: XRCC4 (1–213) with N-terminal His6 tag (domain or fragment, UniProt Q13426 1-213, looked up)
chain: MERKISRIHLVSEPSITHFLQVSWEKTLESGFVITLTDGHSAWTGTVSESEISQEADDMAMEKGKYVGELRKALLSGAGPADVYTFNFSKESCYFFFEKNLKDVSFRLGSFNLEKVENPAEVIRELICYCLDTIAENQAKNEHLQKENERLLRDWNDVQGRFEKCVSAKEALETDLYKRFILVLNEKKTKIRSLHNKLLNAAQEREKDIKQEG
Kd: 7.8 µM
